PMC9174195, “Structural insights into human brain–gut peptide cholecystokinin receptors” (Cell Discovery, 2022)
Values belong to the molecule of their own block, whether it stands above or below them. Square brackets hold non-standard residues; d marks the D form. Ends that are not written are not given here. sY = N[C@@H](Cc1ccc(OS(=O)(=O)O)cc1)C(=O)O

How the values were obtained:
[1] = molecular target: CCK2R I156A (human) (UniProt P32239)
[2] = molecular target: CCK2R L335A (human) (UniProt P32239)
[3] = molecular target: CCK2R Q166A (human) (UniProt P32239)
[4] = molecular target: CCK2R R152A (human) (UniProt P32239)
[5] = molecular target: CCK2R K324N (human) (UniProt P32239)
[6] = molecular target: T1, human CCK2R with 15-residue depletion at the C-terminus, N-terminal Flag-tag, C-terminal LgBiT and double MBP … (human, UniProt P32239 1-432); experiment: cryo-EM structure; gastrin-17–CCK2R–Gq–scFv16 complex; CCK2R, GqiN, Gβγ-peptide and Ric-8A co-expressed in Sf9, ligand and apyrase added, complex purified on MBP resin and Superdex 200 (20 mM HEPES pH 7.5, 100 mM NaCl); 13 mg/mL on the grid; 3.1 Å; conditions: both partners purified
T1 construct: human cholecystokinin receptor CCK2R, wild type, C-terminal 15 residues removed; also called CCK2 receptor; gastrin receptor; not shown: LgBiT, C-terminal, kept
T1 sequence (looked up): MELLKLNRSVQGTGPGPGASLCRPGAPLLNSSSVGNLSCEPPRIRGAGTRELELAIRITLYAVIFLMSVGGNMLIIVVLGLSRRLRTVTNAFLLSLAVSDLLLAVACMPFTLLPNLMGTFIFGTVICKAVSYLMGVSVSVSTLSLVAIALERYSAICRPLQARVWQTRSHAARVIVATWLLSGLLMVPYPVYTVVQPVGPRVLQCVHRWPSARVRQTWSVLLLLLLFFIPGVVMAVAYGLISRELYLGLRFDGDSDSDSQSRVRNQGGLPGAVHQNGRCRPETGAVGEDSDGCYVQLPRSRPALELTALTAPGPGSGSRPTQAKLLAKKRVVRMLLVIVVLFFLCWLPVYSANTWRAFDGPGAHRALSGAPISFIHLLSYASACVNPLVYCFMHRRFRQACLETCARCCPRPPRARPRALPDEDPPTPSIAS

- CCK-8 efficacy, CCK-8-induced Gαq–Gγ dissociation (NanoBiT) assay (% reduction of efficacy) [1]: 50
- CCK-8 efficacy, CCK-8-induced Gαq–Gγ dissociation (NanoBiT) assay (% reduction of efficacy) [2]: 50
- CCK-8 efficacy, CCK-8-induced Gαq–Gγ dissociation (NanoBiT) assay (% reduction of efficacy) [3]: 50
- efficacy of G protein signaling against the wild type, CCK-8-induced Gαq–Gγ dissociation (NanoBiT) assay (% of the wild-type) [4]: 30
- potency of G protein signaling against the wild type, CCK-8-induced Gαq–Gγ dissociation (NanoBiT) assay [4]: > 3 fold
Molecule: Gαq with the 29 N-terminal amino acids replaced by the corresponding sequence of Gαi1 (GqiN) (from UniProt P50148 30-359)

- coupling potency with Gs against wild-type CCK2R, CCK-8-induced cAMP accumulation (Fig. 7d) [5]: > 3 fold
Molecule: dominant-negative human Gαs (DNGαs) (from UniProt P63092 1-394) (natural protein)

- binding result [6]: binds
B1: sulfated gastrin-17 (peptide, UniProt P01350 76-92, looked up)
peptide: QGPWLEEEEEA[sY]GWMDF
modifications: not fully specified (residue 1, C-terminus)
notes: gastrin-17, cut product of the gastrin precursor
